Experimental data: patent US20250326823A1

Tests used:
Assay in all cases: cell-based or functional assay
[1] = target: SARS-CoV-2 spike (S) protein, variant B.1.525 (SARS-CoV-2)
[2] = target: SARS-CoV-2 spike (S) protein, variant B.1.621 (SARS-CoV-2)
[3] = target: SARS-CoV-2 spike (S) protein, variant KP.2 (SARS-CoV-2) (UniProt P0DTC2)
[4] = target: SARS-CoV-2 spike (S) protein, variant XEC (SARS-CoV-2) (UniProt P0DTC2)
[5] = target: SARS-CoV-2 spike (S) protein, variant B.1.427 (SARS-CoV-2)
[6] = target: SARS-CoV-2 spike (S) protein, variant JD.1.1 (SARS-CoV-2)
[7] = target: SARS-CoV-2 spike (S) protein, variant CH.1.1 (SARS-CoV-2) (UniProt P0DTC2)
[8] = target: SARS-CoV-2 spike (S) protein, variant XBB.2.3.2 (SARS-CoV-2)
[9] = target: SARS-CoV-2 spike (S) protein, variant BA.1 (SARS-CoV-2)
[10] = target: SARS-CoV-2 spike (S) protein, variant CH.1.1 (SARS-CoV-2)
[11] = target: SARS-CoV-2 spike protein, variant KP.2 (SARS-CoV-2)
[12] = target: SARS-CoV-2 spike (S) protein, variant B.1.1.7 (SARS-CoV-2)
[13] = target: SARS-CoV-2 spike (S) protein, variant BA.2.86 (SARS-CoV-2) (UniProt P0DTC2)
[14] = target: SARS-CoV-2 spike (S) protein, variant B.1.351 (SARS-CoV-2)
[15] = target: SARS-CoV-2 spike (S) protein, variant BA.2.86 (SARS-CoV-2)
[16] = target: SARS-CoV-2 spike (S) protein, variant KP.2.3 (SARS-CoV-2) (UniProt P0DTC2)
[17] = target: SARS-CoV-2 spike (S) protein, variant XBB (SARS-CoV-2)
[18] = target: SARS-CoV-2 spike (S) protein, variant BA.4/5 (SARS-CoV-2)
[19] = target: SARS-CoV-2 spike (S) protein, variant JN.1 (SARS-CoV-2) (UniProt P0DTC2)
[20] = target: SARS-CoV-2 spike (S) protein, variant LB.1 (SARS-CoV-2) (UniProt P0DTC2)
[21] = target: SARS-CoV-2 spike (S) protein, variant B.1.526 (SARS-CoV-2)
[22] = target: SARS-CoV-2 spike (S) protein, variant B.1.617.1 (SARS-CoV-2)
[23] = target: SARS-CoV-2 spike (S) protein, variant KP.3 (SARS-CoV-2) (UniProt P0DTC2)
[24] = target: SARS-CoV-2 spike (S) protein, variant P.1 (SARS-CoV-2)
[25] = target: SARS-CoV-2 spike (S) protein, D614G (SARS-CoV-2) (UniProt P0DTC2)
[26] = target: SARS-CoV-2 spike (S) protein, variant EG.5.1 (SARS-CoV-2)
[27] = target: SARS-CoV-2 spike (S) protein, variant JN.1 (SARS-CoV-2)
[28] = target: SARS-CoV-2 spike (S) protein, variant XBB.1.16.6 (SARS-CoV-2)
[29] = target: SARS-CoV-2 spike (S) protein, variant EG.5.1 (SARS-CoV-2) (UniProt P0DTC2)
[30] = target: SARS-CoV-2 spike (S) protein, variant KP.3.1.1 (SARS-CoV-2) (UniProt P0DTC2)
[31] = target: SARS-CoV-2 spike (S) protein, variant B.1.617.2 (SARS-CoV-2)
[32] = target: SARS-CoV-2 spike (S) protein, variant B.1.429 (SARS-CoV-2)
[33] = target: SARS-CoV-2 spike protein, variant KP.3 (SARS-CoV-2)
[34] = target: SARS-CoV-2 spike (S) protein, variant P.2 (SARS-CoV-2)
[35] = target: SARS-CoV-2 spike (S) protein, variant XBB.1.5 (SARS-CoV-2)

Q: AZD3152 (antibody) was tested. Which IC50, pseudovirus neutralization [1] did it give?
A: 0.668 nM

Q: What about the IC80, pseudovirus neutralization [1] of the same substance?
A: 1.53 nM

Q: What about the IC50, pseudovirus neutralization [2] of the same substance?
A: 0.265 nM

Q: And the IC80, pseudovirus neutralization [2]?
A: 0.625 nM

Q: And the neutralizing activity IC50 (µg/ml (caption; values match nM)) [3]?
A: > 67

Q: What about the neutralizing activity IC80 (µg/ml (caption; values match nM)) [3] of the same substance?
A: > 67

Q: What about the neutralizing activity IC50 (µg/ml (caption; values match nM)) [4] of the same substance?
A: > 67

Q: What about the neutralizing activity IC80 (µg/ml (caption; values match nM)) [4] of the same substance?
A: > 67

Q: And the IC50, pseudovirus neutralization [5]?
A: 0.598 nM

Q: What about the IC80, pseudovirus neutralization [5] of the same substance?
A: 2.03 nM

Q: And the IC50, pseudovirus neutralization [6]?
A: > 67 nM

Q: And the IC80, pseudovirus neutralization [6]?
A: > 67 nM

Q: And the neutralizing activity IC80 (µg/ml (caption; values match nM)) [7]?
A: 1.59

Q: And the pseudotyped neutralization potency IC50 [7]?
A: 0.501 nM

Q: And the pseudotyped neutralization potency IC80 [7]?
A: 1.47 nM

Q: What about the IC50, pseudovirus neutralization [8] of the same substance?
A: 0.168 nM

Q: What about the IC80, pseudovirus neutralization [8] of the same substance?
A: 0.513 nM

Q: And the IC50, pseudovirus neutralization [9]?
A: 0.0779 nM

Q: And the IC80, pseudovirus neutralization [9]?
A: 0.446 nM

Q: What about the IC50, pseudovirus neutralization [10] of the same substance?
A: 0.301 nM

Q: And the IC80, pseudovirus neutralization [10]?
A: 1.59 nM

Q: And the IC50 (nM), pseudovirus neutralization [11]?
A: > 67 nM

Q: What about the IC50, pseudovirus neutralization [12] of the same substance?
A: 0.622 nM

Q: What about the IC80, pseudovirus neutralization [12] of the same substance?
A: 1.54 nM

Q: And the neutralizing activity IC80 (µg/ml (caption; values match nM)) [13]?
A: 2.23

Q: What about the IC50, pseudovirus neutralization [14] of the same substance?
A: 0.163 nM

Q: And the IC80, pseudovirus neutralization [14]?
A: 0.459 nM

Q: And the IC50, pseudovirus neutralization [15]?
A: 0.351 nM

Q: And the IC80, pseudovirus neutralization [15]?
A: 2.23 nM

Q: And the neutralizing activity IC50 (µg/ml (caption; values match nM)) [16]?
A: > 67

Q: What about the neutralizing activity IC80 (µg/ml (caption; values match nM)) [16] of the same substance?
A: > 67

Q: What about the IC50, pseudovirus neutralization [17] of the same substance?
A: 0.0748 nM

Q: What about the IC80, pseudovirus neutralization [17] of the same substance?
A: 0.349 nM

Q: And the IC50, pseudovirus neutralization [18]?
A: 0.198 nM

Q: And the IC80, pseudovirus neutralization [18]?
A: 0.656 nM

Q: What about the neutralizing activity IC50 (µg/ml (caption; values match nM)) [19] of the same substance?
A: 5.11

Q: What about the neutralizing activity IC80 (µg/ml (caption; values match nM)) [19] of the same substance?
A: 28

Q: And the neutralizing activity IC50 (µg/ml (caption; values match nM)) [20]?
A: > 67

Q: And the neutralizing activity IC80 (µg/ml (caption; values match nM)) [20]?
A: > 67

Q: And the IC50, pseudovirus neutralization [21]?
A: 0.329 nM

Q: And the IC80, pseudovirus neutralization [21]?
A: 1.04 nM

Q: What about the IC50, pseudovirus neutralization [22] of the same substance?
A: 0.271 nM

Q: And the IC80, pseudovirus neutralization [22]?
A: 0.687 nM

Q: And the neutralizing activity IC50 (µg/ml (caption; values match nM)) [23]?
A: > 67

Q: And the neutralizing activity IC80 (µg/ml (caption; values match nM)) [23]?
A: > 67

Q: And the IC50, pseudovirus neutralization [24]?
A: 0.315 nM

Q: What about the IC80, pseudovirus neutralization [24] of the same substance?
A: 0.548 nM

Q: And the IC50, pseudotyped neutralization potency [25]?
A: 0.016 nM

Q: What about the IC50, pseudovirus neutralization [25] of the same substance?
A: 0.102 nM

Q: What about the IC80, pseudotyped neutralization potency [25] of the same substance?
A: 0.032 nM

Q: What about the IC80, pseudovirus neutralization [25] of the same substance?
A: 0.623 nM

Q: What about the IC50, pseudovirus neutralization [26] of the same substance?
A: > 67 nM

Q: What about the IC80, pseudovirus neutralization [26] of the same substance?
A: > 67 nM

Q: What about the IC50, pseudovirus neutralization [27] of the same substance?
A: 5.11 nM

Q: What about the IC80, pseudovirus neutralization [27] of the same substance?
A: 28 nM

Q: And the IC50, pseudovirus neutralization [28]?
A: > 67 nM

Q: And the IC80, pseudovirus neutralization [28]?
A: > 67 nM

Q: What about the neutralizing activity IC50 (µg/ml (caption; values match nM)) [29] of the same substance?
A: > 67

Q: What about the neutralizing activity IC80 (µg/ml (caption; values match nM)) [29] of the same substance?
A: > 67

Q: And the neutralizing activity IC50 (µg/ml (caption; values match nM)) [30]?
A: > 67

Q: What about the neutralizing activity IC80 (µg/ml (caption; values match nM)) [30] of the same substance?
A: > 67

Q: What about the IC50, pseudovirus neutralization [31] of the same substance?
A: 0.602 nM

Q: What about the IC80, pseudovirus neutralization [31] of the same substance?
A: 2.2 nM

Q: What about the IC50, pseudovirus neutralization [32] of the same substance?
A: 0.549 nM

Q: And the IC80, pseudovirus neutralization [32]?
A: 1.39 nM

Q: What about the IC50 (nM), pseudovirus neutralization [33] of the same substance?
A: > 67 nM

Q: And the IC50, pseudovirus neutralization [34]?
A: 0.135 nM

Q: And the IC80, pseudovirus neutralization [34]?
A: 0.359 nM

Q: And the IC50, pseudovirus neutralization [35]?
A: 0.109 nM

Q: What about the IC80, pseudovirus neutralization [35] of the same substance?
A: 0.355 nM
